US20140314784A1 (MEDLMMUNE, published 2014)
Like-named read-outs stand apart in the source and are kept apart here.

T1: CCR4 (human, UniProt P51679 1-360)
T1 construct: whole, on cells
T1 sequence (looked up): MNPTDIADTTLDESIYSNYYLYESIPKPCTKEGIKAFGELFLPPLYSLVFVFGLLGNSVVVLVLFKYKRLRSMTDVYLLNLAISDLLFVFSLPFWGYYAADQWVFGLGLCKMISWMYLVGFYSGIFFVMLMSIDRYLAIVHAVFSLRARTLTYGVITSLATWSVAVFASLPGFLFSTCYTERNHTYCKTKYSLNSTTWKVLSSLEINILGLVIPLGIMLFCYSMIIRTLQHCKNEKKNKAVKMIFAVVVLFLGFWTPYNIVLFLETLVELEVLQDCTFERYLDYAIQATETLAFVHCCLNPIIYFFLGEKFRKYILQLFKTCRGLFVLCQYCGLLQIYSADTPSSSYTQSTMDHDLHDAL

T2: human CXCR3 (human, UniProt P49682 1-368)
T2 construct: whole, on cells
T2 sequence (looked up): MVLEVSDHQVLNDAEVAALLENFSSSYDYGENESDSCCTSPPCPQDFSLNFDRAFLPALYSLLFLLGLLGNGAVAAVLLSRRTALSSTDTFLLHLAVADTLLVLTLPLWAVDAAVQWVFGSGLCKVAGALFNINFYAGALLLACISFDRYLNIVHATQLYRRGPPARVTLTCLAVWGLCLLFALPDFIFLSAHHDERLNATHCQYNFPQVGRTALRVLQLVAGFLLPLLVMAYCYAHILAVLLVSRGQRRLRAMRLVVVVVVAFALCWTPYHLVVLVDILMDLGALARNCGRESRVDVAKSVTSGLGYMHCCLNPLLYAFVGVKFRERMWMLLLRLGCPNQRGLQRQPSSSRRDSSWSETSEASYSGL

B1: 4C1 (antibody, V domains shown)
VH: QVQLVESGGGVVQPGRSLRLSCAASGFTFSSYGMHWVRQAPGKGLEWVAVISYDGSNKYYADSVKGRFTISRDNSKNTLYLQMNSLRAEDTAVYYCTRGGLAARRNYYYSYGMDVWGQGTTVTVSS
VL: DIQMTQSPSSLSASVGDRVTITCRASQDIRNDLGWYQQKPGKAPKRLIYAASSLQSGVPSRFSGSGSGTQFTLTISSLQPEDFATYYCLQHNSYPLTFGGGTKVQIK
notes: Fully human monoclonal antibody from XenoMouse hybridoma (strains XMG2 IgG2 or XMG4 IgG4, kappa/lambda); Tested as hybridoma supernatant or purified antibody; also called mAb 4C1; Mab4C1
B2: 6C7 (antibody, V domains shown)
VH: QVQLVESGGGVVQPGRSLRLSCAASGFTFSNYVMHWVRQAPGKGLEWVAVIWYDGSNKYYADSVKGRFTISRDNSKNTLSLQMNSLRAEDTAVYYCERGEGYYGSGSRYRGYYYGMDVWGQGTTVTVSS
VL: DIQMTQSPSSLSASVGDRVTITCRASQGIRTDLGWYQQKPGKAPKRLIYAASSLQSGVPSRFSGSGSGTEFTLTISSLQPEDFATYYCLQHNSYPRTFGQGTKVEIK
notes: Fully human monoclonal antibody from XenoMouse hybridoma; also called antibody 6C7; mAb 6C7
B3: 7C8 (antibody, V domains shown)
VH: QVQLVESGGGVVQPGRSLRLSCAASGFTFSSYGMHWVRQAPGKGLEWVAVIWYDGTYKYYADSVRGRFTISRDNSKNTLYLQMNSLRAEDTAVYYCARGPLLRYFDWLSDYWGQGTLVTVSS
VL: DIQMTQSPSSLSASVGDRVTITCRASQGIRNDLGWYQQKPGKAPKRLIYAATSLQSGVPSRFSGSGSGTEFTLTISSLQPEDFATYYCLQHNNYPRTFGGGTKVEIK
notes: Fully human monoclonal antibody from XenoMouse hybridoma
B4: 2A4 (antibody, V domains shown)
VH: QVQLVESGGGVVQPGRSLRLSCAASGFTFSSYGMHWVRQAPGKGLEWVAVISYDGSNKYYADSVKGRFTISRDNSKNTLYLQMNSLRAEDTAVYYCTRGGLAARRNYYYSYGTDVWGQGTTVTVSS
VL: DIQMTQSPSSLSASVGDRVTITCRASQDIRNDLGWYQQKPGKAPTRLIYAASSLQSGVPSRFSGSGSGTQFTLTISSLQPEDFATYYCLQHNSYPLTFGGGTKVQIK
notes: Fully human monoclonal antibody from XenoMouse hybridoma; also called mAb 2A4; Mab2A4
B5: 5E1 (antibody, V domains shown)
VH: EVQLLESGGGLVQPGGSLRLSCAASGFTFSSFAMNWVRQAPGKGLEWVSAISGSGGNIYYADSVRGRFTISRDNSKNTLYLQMNSLRAEDTAVYYCAKVDRNLGYYHGMDVWGQGTTVTVSS
VL: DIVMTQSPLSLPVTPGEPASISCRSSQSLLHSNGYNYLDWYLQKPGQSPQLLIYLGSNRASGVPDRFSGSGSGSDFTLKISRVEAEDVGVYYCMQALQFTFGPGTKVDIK
notes: as for B3
B6: 6C7 IgG1TM (antibody, V domains shown)
VH: QVQLVESGGGVVQPGRSLRLSCAASGFTFSNYVMHWVRQAPGKGLEWVAVIWYDGSNKYYADSVKGRFTISRDNSKNTLSLQMNSLRAEDTAVYYCERGEGYYGSGSRYRGYYYGMDVWGQGTTVTVSS
VL: DIQMTQSPSSLSASVGDRVTITCRASQGIRTDLGWYQQKPGKAPKRLIYAASSLQSGVPSRFSGSGSGTEFTLTISSLQPEDFATYYCLQHNSYPRTFGQGTKVEIKR
notes: 6C7 variable domains on a variant IgG1 Fc (IgG1 TM); also called 6C7-TM; Anti-CXCR4 IgG1 TM

Assays:
[1] = biological target: T3, human CXCR4 (human, UniProt P61073 1-352); experiment: cell-based or functional assay
[2] = biological target: T3, human CXCR4; experiment: cell-based or functional assay; remark: listed apart in the source
[3] = biological target: T1, CCR4; experiment: FACS on CCR4 transfected CHO cells, parental cells as control
Procedure: (§1) CXCR4 is a GPCR, with few close homologues in the family of human GPCRs. Among these are CXCR3 and CCR4. […] The samples were analyzed on a FACS Caliber cytometer.

[4] = biological target: T4, cynomolgus monkey CXCR4 (cynomolgus monkey, UniProt Q28474 1-352); experiment: FMAT, hybridoma supernatant on HEK293T cells transiently overexpressing full-length cynomolgus CXCR4
T4 construct: whole, on cells; On transiently transfected HEK293T cells or endogenous on the cynomolgus T-cell line HSC-F; also called Cynomolgus CXCR4
Procedure: (§2) Supernatants collected from harvested cells were tested to assess the ability of the secreted antibodies to bind to HEK293T cells transiently overexpressing either full-length human, murine or cynomolgus monkey CXCR4. […] Cells diluted in PBS containing 2% FBS were seeded at a density of 3000 expressing and 15000 mock transfected cells per well in 384 well plates (Corning Costar, catalog #3712). Immediately after plating, 15 or 20 μl/well of hybridoma supernatants and 10 μl/well of secondary antibody (Goat anti-human IgG Fc Cy5, final concentration 750 ng/ml) were added and plates incubated for 3 hours at room temperature prior to reading the fluorescence on the FMAT 8200 instrument (Applied Biosystems). The product of number of positive events and fluorescence intensity was used as a measure of binding strength.

[5] = biological target: T3, human CXCR4; experiment: FMAT, hybridoma supernatant on HEK293T cells transiently overexpressing full-length human CXCR4
Procedure: as §2

[6] = biological target: T3, human CXCR4; experiment: FACS, hybridoma supernatant pre-incubated with human CXCR4 transfected HEK293T cells, competitor Alexa-647 SDF-1
[7] = biological target: T3, human CXCR4; experiment: FACS binding under antigen limiting conditions on Jurkat cells, Kinexa software fit
Procedure: (§3) FACS binding under antigen limiting conditions was utilized to estimate the affinities of antibodies to the CXCR4 receptor. Jurkat cells were washed in RPMI1640 medium and plated at 50,000 cells per well in duplicate for incubation with 4-fold dilution series of antibody in duplicate, ranging between 150,000 and 0.143 pM. Incubation was carried out at 4° C. overnight, followed by wash step (3 times in PBS) and staining with Goat anti-human Fc−Cy5 secondary antibody+5 μg/mL 7-Amino-Actinomycin (7AAD) for 40 minutes at 4° C. Samples were analyzed on a FACSCaliber following another round of 3 washes in PBS. […] The negative geo mean was entered into Kinexa analysis software as an estimate of antibody “depletion” under limited antigen conditions, and the equilibrium dissociation constant (KD) was estimated from the curve fit.

[8] = biological target: T5, mouse CXCR4 (mouse, UniProt P70658 1-359); experiment: FMAT, hybridoma supernatant on HEK293T cells transiently overexpressing full-length mouse CXCR4
T5 construct: Full-length murine CXCR4 on transiently transfected HEK293T cells; also native on mouse lymphocytes and the EL4 line; also called murine CXCR4
Procedure: as §2

[9] = biological target: T2, human CXCR3; experiment: FACS on human CXCR3 transfected HEK293 cells, parental cells as control
Procedure: as §1

[10] = biological target: T3, human CXCR4; experiment: FACS binding under antigen limiting conditions on Jurkat cells, Kinexa software fit; experiment 2
Procedure: as §3

[11] = biological target: T3, human CXCR4; experiment: cell-based or functional assay; remark: listed apart in the source
[12] = biological target: T3, human CXCR4; experiment: FACS binding under antigen limiting conditions on Jurkat cells, Kinexa software fit; experiment 1
Procedure: as §3

[13] = biological target: T4, cynomolgus monkey CXCR4; experiment: Kinexa-based on-cell affinity (FACS) on cynomolgus T-cell line HSC-F
[14] = biological target: T3, human CXCR4; experiment: FACS competition on formalin-fixed Namalwa cells: 10 nM biotinylated SDF-1 bound first, then displaced by 6C7; streptavidin-PE readout
[15] = biological target: T3, human CXCR4; experiment: cell-based or functional assay; remark: listed apart in the source
[16] = biological target: T4, cynomolgus monkey CXCR4; experiment: FACS binding titration on HSC-F cells (cyno CXCR4), Kinexa model fit
[17] = biological target: T3, human CXCR4; experiment: FACS binding titration on Namalwa cells (human CXCR4), Kinexa model fit

T3 sequence (P61073 whole entry): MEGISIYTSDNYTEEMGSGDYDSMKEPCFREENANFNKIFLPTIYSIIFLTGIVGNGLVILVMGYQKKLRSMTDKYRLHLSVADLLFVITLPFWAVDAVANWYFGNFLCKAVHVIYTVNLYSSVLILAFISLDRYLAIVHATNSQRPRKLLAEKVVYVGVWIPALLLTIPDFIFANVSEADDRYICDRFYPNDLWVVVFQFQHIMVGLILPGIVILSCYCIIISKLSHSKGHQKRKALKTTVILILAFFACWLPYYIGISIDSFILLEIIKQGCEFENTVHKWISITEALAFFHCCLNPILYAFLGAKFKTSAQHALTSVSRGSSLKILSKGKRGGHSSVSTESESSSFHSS
T4 sequence (Q28474 whole entry): as the sequence (P61073 whole entry) above, with M24I, N35H, K38R, R146K, N176S counted along it
T5 sequence (P70658 whole entry): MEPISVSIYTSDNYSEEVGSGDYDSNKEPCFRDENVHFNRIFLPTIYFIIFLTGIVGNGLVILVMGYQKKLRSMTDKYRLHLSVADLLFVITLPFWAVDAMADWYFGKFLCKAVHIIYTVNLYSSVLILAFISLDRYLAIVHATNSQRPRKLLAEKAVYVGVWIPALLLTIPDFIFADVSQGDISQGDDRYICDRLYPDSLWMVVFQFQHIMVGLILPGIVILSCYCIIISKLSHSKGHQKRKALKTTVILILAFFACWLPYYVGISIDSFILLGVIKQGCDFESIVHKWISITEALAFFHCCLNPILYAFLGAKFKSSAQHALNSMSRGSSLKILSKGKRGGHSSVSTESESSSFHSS

Binder | % Inhibition 1 hr (Jurkat chemotaxis) [1] | % Inhibition 24 hr (Jurkat chemotaxis) [1] | Jurkat chemotaxis inhibition IC50 pM [2] | Jurkat chemotaxis inhibition IC50 [2] | binding result [3] | Count [4] | FL1 [4] | FL1 x count [4] | Count [5] | FL1 [5] | FL1 x count [5] | % Inhibition of SDF-1 binding [6] | Kd [7] | Count [8] | FL1 [8] | FL1 x count [8] | binding result [9] | Jurkat chemotaxis inhibition IC50 [11] | also measured
B1 | 81.3% | -27% | 1220 pM | 0.182 µg/mL | no binding (tested: 10 and 100 ug/ml) | 46 | 6360 | 293000 | 183 | 8330 | 1.52e+06 | 35% | 2200 pM | 5 | 1490 | 7440 | no binding (tested: 10 and 100 ug/ml) |  | 
B2 | 99.6% | 95% | 74.7 pM | 0.0112 µg/mL | no binding (tested: 10 and 100 ug/ml) | 125 | 3470 | 434000 | 199 | 7990 | 1.59e+06 | 88% |  |  |  |  | no binding (tested: 10 and 100 ug/ml) | 68 pM | Kd [10]: 768 pM; Kd [12]: 242 pM; Kd [13]: 221 pM; IC50 [14]: 123 pM; IC50 (read off the curve) [14]: ~100 pM
B3 | 48.3% | -34% | 1570 pM | 0.236 µg/mL | no binding (tested: 10 and 100 ug/ml) | 137 | 4680 | 642000 | 184 | 7940 | 1.46e+06 | 75% | 363 pM | 9 | 2400 | 21600 | no binding (tested: 10 and 100 ug/ml) |  | 
B4 | 98% | 76% | 383 pM | 0.0574 µg/mL | no binding (tested: 10 and 100 ug/ml) | 89 | 6740 | 600000 | 89 | 8370 | 745000 | 42% | 820 pM | 3 | 954 | 2860 | no binding (tested: 10 and 100 ug/ml) |  | 
B5 | 70% | -20% | 14200 pM | 2.12 µg/mL |  | 130 | 12900 | 1.68e+06 | 213 | 7750 | 1.65e+06 | 1% | 45 pM |  |  |  |  |  | 
B6 |  |  |  |  |  |  |  |  |  |  |  |  |  |  |  |  |  | 193 pM | Inhibition of pMAPK Signaling IC50 (nM), Jurkat, ELISA [15]: 3.1 nM; Kd [16]: 221 pM; Kd [17]: 768 pM
